Data set [1] deals with Pae3. The data set can be described thus: Kinetic parameters for Pae3. In kind it is biochemical, Pseudomonas aeruginosa. Conditions: menadione as substrate, NADPH as cofactor. As to the method:
[…] […] Incubation times varied according to the enzyme activity being studied.
The protein encoded by Pae3 was overexpressed in E. coli and purified by anion exchange chromatography.

For data set [2], the target named is C. jejuni NfnB (Campylobacter jejuni, UniProt Q0P9I8).
Data set [3] concerns Smu2. The data set can be described thus: Kinetic parameters for Smu2. In kind it is biochemical, Streptococcus mutans. As to the method: (§1) Quantitative assays using CB 1954 or SN 23862 as substrate were carried out at 37° C. by HPLC as previously described (2) (3). […] Incubation times varied according to the enzyme activity being studied.
Data set [4] has as its target YodC (Bacillus subtilis, UniProt P81102). The data set can be described thus: Substrate and cofactor specificity for YodC. Here is the method:
as §1
(§2) Assays were carried out spectrophotometrically at 37° C. in 10 mM Tris pH 7.5 using cytochrome c as terminal electron acceptor.

Data set [5] deals with Efa 1. The data set can be described thus: Kinetic parameters for Efa 1. It counts as biochemical, Enterococcus faecalis. From the text: This gene is more highly related in sequence to ydgI compared to the other sequences used to search databases.
In data set [6] the target is H. influenzae NfnB (Haemophilus influenzae, UniProt Q57431).
Chain of H. influenzae NfnB (Q57431 whole entry): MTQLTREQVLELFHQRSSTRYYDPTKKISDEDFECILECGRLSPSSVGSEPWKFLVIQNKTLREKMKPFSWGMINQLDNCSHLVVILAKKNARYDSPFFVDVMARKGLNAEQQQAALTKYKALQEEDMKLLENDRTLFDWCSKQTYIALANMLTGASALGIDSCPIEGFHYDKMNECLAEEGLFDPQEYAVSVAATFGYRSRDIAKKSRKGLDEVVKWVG
Data set [7] deals with Cc1cc2nc3c(=O)[nH]c(=O)nc-3n(C[C@H](O)[C@H](O)[C@H](O)COP(=O)(O)O)c2cc1C. The data set can be described thus: purified protein, by the assay type. Conditions: other: flavin substrates, cofactor not given; pH 7.0; 37.0 °C.
For data set [8], the system named is CC1=CC(=O)c2ccccc2C1=O. The data set can be described thus: purified protein, by the assay type. As to conditions: other: 1 mM NADPH; pH 7.0; 37.0 °C.
In data set [9] the test system is Cc1cc2nc3c(=O)[nH]c(=O)nc-3n(C[C@H](O)[C@H](O)[C@H](O)COP(=O)(O)OP(=O)(O)OC[C@H]3O[C@@H](n4cnc5c(N)ncnc54)[C@H](O)[C@@H]3O)c2cc1C. The data set can be described thus: purified protein, by the assay type. As to conditions: other: flavin substrates, cofactor not given; pH 7.0; 37.0 °C.
A short description of data set [10]: Quinone reductase assay with menadione, cytochrome c as terminal electron acceptor. It counts as biochemical. Here is the method:
as §2

The test system of data set [11] is recombinant enzymes (antigens). The data set can be described thus: Polyclonal antisera titres by ELISA. In kind it is binding. As to conditions: rabbit antiserum.
Data set [12] is classed as biochemical. Conditions: Table 6.
Data set [13] in a line: Nitroreductase enzyme assay with CB 1954 as substrate (HPLC). It counts as biochemical.
Data set [14] in a line: Nitroreductase enzyme assay with SN 23862 as substrate (HPLC). It counts as biochemical.
Data set [15] has as its system V79 cells. The data set can be described thus: In vitro cytotoxicity test, prodrug + enzyme + cofactor, SRB assay. In kind it is cell-based. Conditions: FIG. 4. Here is the method:
Microtitre plates (96 well) were obtained pre-seeded with V79 cells at 10,000 cells/ml (European Collection of Animal Cell Cultures, ECACC) in DMEM+10% foetal calf serum. All treatments were prepared on duplicate plates and transferred to the cells prior to adding enzyme (10 μl) to the appropriate wells. […] Enzymes were diluted in sterile PBS. All aqueous solutions were filter sterilised before use and operations carried out aseptically in a laminar flow hood. […] Cytotoxicity was quantified by sulphorhodamine B (SRB) assay. Briefly, the growth medium was removed and the cells fixed by addition of 100 μl per well of cold 10% TCA for 30 min. The TCA was removed and the fixed cells washed with water before adding 100 μl per well of 0.4% dye in 1% acetic acid and incubating at room temperature for 30 min. Excess dye was removed and the wells washed 4 times with 1% acetic acid. After air drying at room temperature the dye was solubilised by adding 100 μl of 10 mM Tris to each well and shaking for 15 min. […] Cytotoxicity towards treated cells was expressed as % of A492 of untreated controls and statistical analysis was performed using the Mann-Whitney test. ED50's were caculated using probit analysis.
For orientation: In SRB staining, fixed cells bind dye roughly in proportion to their protein.

Data set [16] is classed as biochemical. Conditions: Table 6. This is another data set of the same source.
In data set [17] the test system is recombinant enzymes (antigens). The data set can be described thus: Western blots of antigens with rabbit antisera. As to conditions: antisera 1/10000 or 1/20000, ECL detection. In kind it is binding. Here is the method: Recombinant enzymes were run on SDS PAGE 4-20% gradient at 0.05, 0.5, 5, 50 and 500 ng with 500 ng of the other antigens to test cross-reactivity. The antisera were added at a dilution of 1/10 000 or 1/20 000. Secondary antibody dilutions were as shown above and detection was by ECL (Amersham).
Antigens were run on SDS PAGE 4-20% gradient at 0.05, 0.5, 5, 50 and 500 ng with 500 ng of other antigens to test cross-reactivity. The antisera were added at a dilution of 1/10000 (α-P. gingivalis YwrO, α-YwrO BAM and α-H. influenzae NfnB) or 1/20000 (α-E. coli B NfnB and α-YdgI). Secondary antibody dilutions were as shown above and detection was by ECL.

The nature of data set [18]: Flavin reductase assay with FMN and FAD. It counts as biochemical. Here is the method:
as §2

Setting [19] is: substrates, NADPH preferred cofactor.
The mark [20] stands for this setting: listed as P. gingivalis YwrO homologue.
[21] abbreviates: listed as YwrO of P. gingivalis.

“Also recorded” adds a separate entry of the source. Read-outs that look alike come from different tables or passages of the source.

Chain of YodC (P81102 2-202): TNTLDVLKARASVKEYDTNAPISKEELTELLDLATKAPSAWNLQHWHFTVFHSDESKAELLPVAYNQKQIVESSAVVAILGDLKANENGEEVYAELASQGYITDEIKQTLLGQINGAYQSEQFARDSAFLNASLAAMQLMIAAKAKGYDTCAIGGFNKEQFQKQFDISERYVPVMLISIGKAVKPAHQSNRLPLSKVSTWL
Chain of C. jejuni NfnB (Q0P9I8 entry or part of it): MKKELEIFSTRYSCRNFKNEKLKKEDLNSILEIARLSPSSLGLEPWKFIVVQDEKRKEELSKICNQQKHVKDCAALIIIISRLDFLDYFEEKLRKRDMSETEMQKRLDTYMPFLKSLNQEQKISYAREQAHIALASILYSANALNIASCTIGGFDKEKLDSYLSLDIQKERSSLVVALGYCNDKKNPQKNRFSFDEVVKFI

For `CC1=CC(=O)c2ccccc2C1=O` [Menadione], the Km in [1] came to 3.8 µM; in [3] (setting [19]), 2700 nM; in data set [4] (cofactor NADH, 37° C., 10 mM Tris pH 7.5), 1000 ± 100 nM; in [4] (cofactor NADPH) it was 1600 ± 200 nM; in [5] (substrates, cofactor not given), 107 µM. For the same molecule, the Ksi in data set [1] and in [5] was 18.0 µM each time. In addition, the kcat stood at 153.4 s⁻¹ in data set [1]; 66.1 s⁻¹ in data set [2] (1 mM NADPH); 201.0 s⁻¹ in data set [3] (setting [19]); 415.4 ± 14.8 s⁻¹ in data set [4] (cofactor NADH); 329.5 ± 18.4 s⁻¹ in [4] (cofactor NADPH); 264.8 s⁻¹ in data set [5] (substrates, cofactor not given). The kcat was 24.1 in data set [6] (1 mM NADH) and 177.8 in data set [6] (1 mM NADPH).

With “C. jejuni NfnB (Campylobacter jejuni subsp. jejuni NCTC 11168 = ATCC 700819)”, the figures for the Km in data set [7], in data set [8] and in data set [9] were 0.7 ± 0.2 μM μM, 1.3 ± 0.2 μM μM and 3.3 ± 0.4 μM μM, respectively.

Take NADPH: the values for the Km in data set [1] and in data set [3] (100 uM menadione) were 308 µM and 1300 nM, respectively. Besides, the kcat in data set [1] turned out to be 33.8 s⁻¹; in [2] (20 μM menadione), 62.5 s⁻¹; in [3] (100 uM menadione) it was 188.7 s⁻¹; in [6] (menadione 100 μM) it was 154.2.

B1: P. gingivalis YwrO: nitroreductase from Porphyromonas gingivalis, SEQ ID NO: 25 (protein, listed as Porphyromonas gingivalis)
chain: MKKTLVIVVHPDLTKSVINKAWAKAIEGAATIHHLYEQYPNGQIDLAHEQALLEAHDRIVFQFPLYWYAAPYLLKKWMDEVFTEGWAYGAGGDKMEGKEICAAVSCGSPKSAFAEGAQQCHTLRSYLNVFDGIAAFLRARFTGYHACYDSYNPRLPEMLPANCEAYLRFIKGE
In the case of B1, in data set [10] (Table 6), the Quinone reductase entry was “No”. Moreover, the “activity with menadione / quinone reductase” value was “inactive with menadione or flavins” in [10] (setting [20]) and “little activity with menadione or flavins” in data set [10] (setting [21]). In addition, in data set [11] (10 days after booster), the Post-boost titre is on record as 3100. In [11] (after 8 weeks), the “Pre-boost titre (50%)” value came out at 1000. For the same molecule, the Cofactor entry in data set [12] is “NADH”. For the same molecule, the “kcat (CB 1954)” value in data set [13] is 3.2 s⁻¹. In addition, the kcat for CB1954 (text) in data set [13] came out at 3.2 s⁻¹. Further, in [13], the “reduction of CB1954: activity and product formed” value was “only the 4HX reduction product”. Also, the Km in data set [13] (Table 6, 37° C., read-out: Km CB 1954) was determined as 1.2 mM; in data set [13] (read-out: Km for CB1954) it was 1.2 mM. The “CB 1954 product” value in data set [13] (Table 6, recombinant enzymes) was 4HX. Further, the “SN 23862 acitvity” value in [14] (Table 6) is “Yes”. Also, the “activity with SN23862” value in data set [14] (setting [20]) was “active with SN23862; also recorded: too slow for kinetic parameters to be calculated accurately”. For the same molecule, the “in vitro cytotoxicity of SN 23862 with enzyme” value in data set [15] is reported as “lack of activity”. Further, the Azo-Reductase result in data set [16] was “Yes”. In addition, in data set [17], the “amount of antigen detected by its antiserum in Western blot” value was found to be 500 ng. Moreover, in data set [18] (Table 6), the Flavin reductase entry is recorded as “No”. Further, the entries for the “flavin reductase activity” value in [18] (setting [20]) and in [18] (setting [21]) were “inactive with menadione or flavins” and “little activity with menadione or flavins”, respectively.

Source of the values: US20040014191A1, “Nitroreductase enzymes” (priority 1999, published 2004).
